Values joined by “and” are separate entries in the source; they are usually repeats but may differ in a detail not shown here. Identical values can stand only once. “Also recorded” adds a separate entry of the source.
Tests used:
Assay type in all cases: cell-based
[1] = test system: human pulmonary artery smooth muscle cells; assay: Whole cell patch clamp of human pulmonary artery smooth muscle cells, ambient O2 vs acute hypoxia; settings: pretreatment with 100 nM
Excerpt: FIGS. 10A-10B show whole cell patch clamp recording of human pulmonary artery smooth muscle cells. […] The decrease is statistically significant, *, P<0.05 by Students t-test.
The hPASMCs are in primary culture and were studies by whole cell patch clamp at ambient levels of oxygen (˜21% O2) and under acute hypoxia (2% O2). Cells were studied in quasi-physiological buffers with high external concentrations of potassium using recording protocols.

[2] = molecular target: T1, Kir2.3 (Homo sapiens, UniProt P48050); assay: Two-electrode voltage-clamp of Kir2.3 currents in Xenopus oocytes; settings: co-expression
T1 construct: expressed in transfected cells; host or cells: Xenopus oocytes
T1 sequence (P48050 1-445): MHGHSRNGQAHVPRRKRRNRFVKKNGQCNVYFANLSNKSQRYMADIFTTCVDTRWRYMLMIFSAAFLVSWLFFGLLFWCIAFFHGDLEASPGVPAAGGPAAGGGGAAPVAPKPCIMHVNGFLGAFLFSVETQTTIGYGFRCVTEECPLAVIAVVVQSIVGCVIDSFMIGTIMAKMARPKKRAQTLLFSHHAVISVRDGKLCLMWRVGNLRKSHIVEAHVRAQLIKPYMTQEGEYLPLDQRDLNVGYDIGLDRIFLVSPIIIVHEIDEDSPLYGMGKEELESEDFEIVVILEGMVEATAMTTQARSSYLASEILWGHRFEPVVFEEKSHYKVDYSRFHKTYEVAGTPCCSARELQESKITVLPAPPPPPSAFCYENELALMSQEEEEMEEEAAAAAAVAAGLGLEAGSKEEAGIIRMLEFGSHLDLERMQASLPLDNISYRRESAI
Excerpt: FIG. 5A discloses SEQ ID NOS 6-9, respectively, in order of appearance. […] SENP1 increases the current. […] SUMO sensitivity is transferred to Kir2.3 when the site in Kir2.1 is recreated by mutagenesis (Kir2.3-N25D).
Co-expressed SUMO decreases Kir2.4 currents in Xenopus oocytes. Using the SUMOplot algorithm to assess potential SUMOylation sites based on the canonical motif ψ-K-X-E/D, we identified the high probability SUMO site V-K54-K-D (SEQ ID NO: 4) in the N-terminal sequence of Kir2.4. SUMO covalently modifies Kir2.4 at K54 (FIG. 5) and tested the idea using two-electrode voltage-clamp (TEVC), a sensitive assay to study the regulation of Kir channels. Kir2.4 currents, assessed at −80 mV in a high K^+ (96 mM) bath solution, decreased in a dose-dependent manner with co-expression of SUMO1 (FIG. 5). Co-injection of 5 ng of human SUMO1 RNA decreased Kir2.4 currents by ˜50%. In contrast, expression of SENP1 increased Kir2.4 by ˜50%. […] The analogous sequence in Kir2.2 and Kir2.3 is V-K-K-N(SEQ ID NO: 5), which lacks the terminal aspartic acid, reduced the probability of SUMOylation from 0.93 to 0.31. Consistent with this, Kir2.3 currents were insensitive to SUMO1 and SENP1. […] This last result is consistent with a protein-protein interaction between the channel and SUMO1.

[3] = molecular target: T2, Kir2.4 (Homo sapiens, UniProt Q9UNX9); assay: Whole-cell patch-clamp of Kir2.4 in HEK293 cells with SUMO1 or SENP1 in the recording pipette; design: expressed in transfected cells
T2 sequence (Q9UNX9 1-436): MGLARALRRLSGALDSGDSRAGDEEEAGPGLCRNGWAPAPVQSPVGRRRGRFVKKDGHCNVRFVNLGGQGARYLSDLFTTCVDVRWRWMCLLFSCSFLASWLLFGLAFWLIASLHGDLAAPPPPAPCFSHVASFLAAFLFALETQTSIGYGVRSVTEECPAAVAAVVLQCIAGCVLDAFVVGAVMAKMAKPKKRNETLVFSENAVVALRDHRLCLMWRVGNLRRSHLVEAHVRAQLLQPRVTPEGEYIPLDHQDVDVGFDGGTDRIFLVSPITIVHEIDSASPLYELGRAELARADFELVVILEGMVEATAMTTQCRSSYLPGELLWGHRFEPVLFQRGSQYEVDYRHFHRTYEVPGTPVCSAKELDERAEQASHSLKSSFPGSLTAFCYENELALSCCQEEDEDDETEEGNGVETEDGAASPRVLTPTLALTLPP
Procedure: Currents were measured at −80 mV in 140 mM external K+.
Similarly, currents were no longer enhanced by SENP1.
SUMOylation regulates Kir2.4 channels in mammalian cells. Next, we tested if SUMO could regulate Kir2.4 channels in mammalian cells. Kir2.4 channels were transiently expressed in HEK293 cells and studied in whole-cell mode with 140 mM bath [K]^+, using a ramp protocol from −80 to +80 mV. Purified SUMO1 or SENP1 peptide were introduced via the recording pipette. At 1 nM, SUMO1, but not heat-denatured SUMO1, inhibited Kir2.4 currents by ˜40 and 60%, respectively, within one-minute of breakthrough. In contrast, 1 nM SENP1 increased the current by ˜50% (FIG. 7).
The PIP2-dependence of SUMO-regulation. Using the 5-ptaseOCRL system, we depleted PIP2 in HEK293 cells expressing Kir2.4 and studied currents with 1 nM SUMO1, or SENP1 in the recording pipette. When currents were recorded after 5-min activation of the optogenetic probe, 5-ptaseOCRL, the inhibitory effect of 1 nM SUMO1 on Kir2.4 was reduced from ˜40% to ˜7% (FIG. 9). Current augmentation observed with SENP1 in the pipette was reduced from […] to ˜6%. These preliminary data support the conclusion that SUMO-regulation of Kir2.4 channels is PIP2-dependent.

Molecule	effect on hypoxia-induced change of hPASMC inward current ([1]; 2% O2)	effect on initial current in ambient O2 ([1]; ambient O2)	sensitivity of Kir2.3 currents [2]	inhibition of Kir2.4 currents after PIP2 depletion ([3]; 1 nM SUMO1, after 5-min activation of 5-ptaseOCRL) [%]	inhibition of Kir2.4 currents ([3]; 1 nM in pipette, 140 mM bath K+, within one-minute of breakthrough)	increase of Kir2.4 current ([3]; 1 nM SENP1 in pipette)	Kir2.4 current augmentation after PIP2 depletion ([3]; 1 nM SENP1 in pipette, after 5-min activation of 5-ptaseOCRL) [%]
Cc1sc(C(=O)c2cncnc2N[C@@H]2C[C@H](COS(N)(=O)=O)[C@@H](O)C2)cc1[C@@H]1NCCc2ccc(Cl)cc21 [TAK981, Subasumstat]	prevents hypoxia induced changes; also recorded: precludes the change in the current caused by acute hypoxia	does not alter the magnitude or the phenotype of the initial current					
SUMO1: purified SUMO1 (small ubiquitin-related modifier) protein introduced via the recording pipette or co-expressed			insensitive	~7	~40% and ~60%		
SENP1: purified deSUMOylating enzyme (SUMO specific protease) introduced via the recording pipette or expressed (protein, UniProt Q9P0U3 1-644, looked up) Sentrin-specific protease 1: MDDIADRMRMDAGEVTLVNHNSVFKTHLLPQTGFPEDQLSLSDQQILSSRQGHLDRSFTCSTRSAAYNPSYYSDNPSSDSFLGSGDLRTFGQSANGQWRNSTPSSSSSLQKSRNSRSLYLETRKTSSGLSNSFAGKSNHHCHVSAYEKSFPIKPVPSPSWSGSCRRSLLSPKKTQRRHVSTAEETVQEEEREIYRQLLQMVTGKQFTIAKPTTHFPLHLSRCLSSSKNTLKDSLFKNGNSCASQIIGSDTSSSGSASILTNQEQLSHSVYSLSSYTPDVAFGSKDSGTLHHPHHHHSVPHQPDNLAASNTQSEGSDSVILLKVKDSQTPTPSSTFFQAELWIKELTSVYDSRARERLRQIEEQKALALQLQNQRLQEREHSVHDSVELHLRVPLEKEIPVTVVQETQKKGHKLTDSEDEFPEITEEMEKEIKNVFRNGNQDEVLSEAFRLTITRKDIQTLNHLNWLNDEIINFYMNMLMERSKEKGLPSVHAFNTFFFTKLKTAGYQAVKRWTKKVDVFSVDILLVPIHLGVHWCLAVVDFRKKNITYYDSMGGINNEACRILLQYLKQESIDKKRKEFDTNGWQLFSKKSQEIPQQMNGSDCGMFACKYADCITKDRPINFTQQHMPYFRKRMVWEILHRKLL			insensitive			~50% and ~40%	~6

From patent US20240358731A1, “SUMO PATHWAY AS AN OXYGEN SENSOR RELEVANT TO THE PATHOPHYSIOLOGY OF PULMONARY ARTERY HYPERTENSION AND CARDIAC ARRHYTHMIA” (Northeastern University, priority 2023, published 2024)
